The DeepSol protein solubility set

Experiment: soluble on expression in E. coli; label from the status in PepcDB or PDB records

Sequence | soluble on expression in E. coli
MGSDKIHHHHHHMNWMDQPDLYSRYKIFLEILQSKEHISLFDPRLKRYTDILIDLEKPFTTWSTPNHIILVHKTLCLRHFPNKYESSAKRPVLILPPQAGHHSNLADYSPAQSLVRVFHRYGYDVYVTQWLSATTEYKDLGIEDYIRLTDEAVEEVRKRTGVYKIHLVGQCQGGWQASIYTSLFPDKISTLVSAAAPIDVNAKPSPIVEYAQKLSIDVFRFMVNSGGGVMPGKFILQGFKSMQPEEHYVRKYFRLWQMIKEGDEDGVKRFIHFENWYQYTQNLPGRFYLEIVKNIFKENNLTKPGSFQLDGRPVDLRNISCPVIIMAGKKDHITPPEQAFALKNYISTPAADVIEILTEGGHIGTLMGTESLREDWTAVNEVLKLAI | not soluble
MGSDKIHHHHHHMTLTKEQLLNRGIEVIDKAENEGITLRVIGGAAIALIAKKGSELYPRVYKDIDYFGLSSQSTKISRFLEGIGLIPNKRFNALHGHIRLMFFDPIINSTVDVFLDEFVMCHKLVLKDRLRIMKYTIPTSDLFLTKMQIIQLTENDKKDIAALLYDVELGERDDEKTMNYNYIAKILSEDWGFYKTYTINHDRVLEFMKNDKNREIIEPKLVKLREIIEKHPKSIKWKMRAKIGEKVKWYEEPEEVNTNFTQQ | not soluble
MAHHHHHHMESISRTYENIKNDKNNLSNAENENNGNFKAPPNGTVCCPEDLKMYSTIQLNQEIEISKNPFPLHEINKKNDIPLCAQEFSDLTDPLYIKKICLEKVPEWNHFTEDNLRVKQILSGLTNQLFEVGLKEETANNYNSIRTRVLFRIYGKHVDELYNTISEFEVYKTMSKYKIAPQLLNTFNGGRIEEWLYGDPLRIDDLKNPTILIGIANVLGKFHTLSRKRHLPEHWDRTPCIFKMMEKWKNQLFKYKNIEKYNCDIHKYIKESDKFIKFMKVYSKSDNLANTIVFCHNDLQENNIINTNKCLRLIDFEYSGFNFLATDIANFFIETSIDYSVSSYPFFEIDKKKYISYENRKLFITAYLSNYLDKSLVVPTPKLIDEILEAVEVQALGAHLLWGFWSIIRGYQTKSYNEFDFFLYAEQRLKMYDDQKEYLISNNIIKGYD | soluble
MAHHHHHHMQTATAPFILRSLYKDAYISDMQIARPITELMMNTIGAQLTNKYDTHIPAIACSLYTLFSMSRVQTLGQEFCDLLPVVKAHPWQPVGPARVLLLAVLQLVEPTAVFVVARKLFPDLSTADVEEVLRKAVLCALFLFERFGTLPHRIARVRFLSLKPSRTLQDSDGAPGSYLVLGLVLLVELVVRLWRYSKERTSREAKRSTEAAVITSSDEDAEDARSGKCMLCLSNRKCPTATNCGHIFCWRCIAEWIQSNPQEAVCPFCRQHITTQSLVPLYFYVAKEPPRVGTATDAAAPPAA | soluble
MGSDKIHHHHHHMKTLLGIIAGKAAQSILTKLGRGSTYPGRLALACDKDILKDLSKDYDIVVVTGTNGKTLTTALTVGILKEAFGEIITNPSGANMITGITSTFLAAKKGKSERQIAVLEIDEASLPRITTYLKPSLFVYTNIFRDQMDRYGEIYTTYQMIVDGARNAPKATILANGDSPIFSSKDIVNPVQYYGFDTAKHAPQLAHYNTEGILCPKCEHILQYRLNTYANLGDFVCLNCQFQRPTLDYQLTELTAITHQSSEFVIDGQNYKINVGGLYNIYNALAAVSVAEFFGVSPEKIKAGFNKSKAVFGRQETFTVGDKSCTLILIKNPVGASQALEMIQLADYPFSLSVLLNANYADGIDTSWIWDANFELITQMPITEINAGGVRHSEIARRLRVTGFDDTKIKQAEKLEQIIETIEKQEAKHAYILATYTAMLEFRSLLADRHVVEKEMI | not soluble
MGSDKIHHHHHHMAKYRIMTFDGGGTLGALSLQLLNRLARQNPKLISRTHVFSGNSIGSFTALALASGRSPRETLQYFEDEILPAFSISRPGGPVFNQQLPYSGFIKAVRNFFPADLQLIDLRKRIVVPSFKLYSQKLDRWTPVLFHNFPGSPYLNEKVSDVILRSSGAPATQRAYQNYVDGYVVATNPSTASIAFAVGKANVPLDQIAVLSIGTGEAPTRLRRDTRGWGMVSADNIRPENLKNLPPNWGVLLDRSPNEPLLPFLQMIAGGNGYYESMVSANLLGDRFFRLDPRIPNFSKTDPAVVPAVIEIANKTNLQPANQFIEKNWGSK | not soluble
MEHFHGNRWDQLRAVEADILCPPPADPFQIFPSGWTRASELSEKGWRELLDRRRSQSPPPREPSPDVRRAIRRTPPPRVNRVAPIRLPERRPLRQLNANDARRPAQDAANRINQENMRAGNIDNGQPRRRALSPTQLPGVRAIPKDFNRFFRGLLTPGEFFAKSQTRYLGPFDEMPTEDTLPAADEYIILQRMGRLPDSGKSIFRQVGNLST | not soluble
LLLLLPQGGDVRGGPGVREPGQAPQDRGGRDRLLGRGERESPGSDASGGERYSSGGGDGGDGDGGSGGGGDGEEGEGGEEGDEGDGDEGGSGGDESGSGGGPRSMPLSTEGGGSHHKVSVSPVVHVRGLCESVVEADLVEALEKFGTICYVMMMPFKRQALVEFENIDSAKECVTFAADVPVYIAGQQAFFNYSTSKRITRPGNTDDPSGGNKVLLLSIQNPLYPITVDVLYTVCNPVGKVQRIVIFKRNGIQAMVEFESVLCAQKAKAALNGADIYAGCCTLKIEYARPTRLNVIRNDNDSWDYTKPYLGRRDRGKGRQRQAILGDHPSSFRHDGYGSHGPLLPLPSRYRMGSRDTPELVAYPLPQASSSYMHGGSPSGSVVMVSGLHQLKMNCSRVFNLFCLYGNIEKVKFMKTIPGTALVEMGDEYAVERAVTHLNNVKLFGKRLNVCVSKQHSVVPSQIFELEDGTSSYKDFAMSKNNRFTSAGQASKNIIQPPSCVLHYYNVPLCVTEETFTKLCNDHEVLPFIKYKVFDAKASAKTLSGLLEWKCKTDAVEALTALNHYQIRVPNGSNPYTLKLCFSTSSHL | soluble
MICLDCDDLFDTWRLQARWLLSHEIDPSQVSWKSPDAADLFGSEEQYPEQSGPFQARVPLELLQLLQSTSRYRGEQRWSLLYEVLWRVTHGDRTAMMAGDKLGSELHRRLKAVRREAHHLHAFLRFVALPPADNDAAIMRPQYVAWHEPAHDILHSASEHFIGRMGQHRWMIATPQDGVYYDGKQLIHERRCPEAWQTMARQVEDPHGELWLTYYSHIFNPARLNPKVMEGHFPSRFWKNLPE | not soluble
GMQTPALIIVTGHPATGKTTLSQALATGLRLPLLSKDAFKEVMFDGLGWSDREWSRRVGATAIMMLYHTAATILQSGQSLIMESNFRVDLDTERMQNLHTIAPFTPIQIRCVASGDVLVERILSRIAQGARHPGHCDDRSPADLELVRSRGDIPPLPLGGPLLTVDTTFPEQIDMNAIVQWVRQHLQSGTAFL | soluble
MGSDKIHHHHHHMFEWVEKISFSEASPLTAQAQDNKFGFHRKRPEVMAHSHWHGHIEINYLFDCSADYLINGQEISVPEGRMIIFWASIPHQMTACHGDGEIVNIYIPLQAFLTWMLPGEFVSQLLHGEVMVSDSLYVCDRQLTQIWEADIASQEPLLASQVINEIRNRIRRMAIEHYSTFNLAHRSGHGVDKPVFGGLNHIQTMLRYIADHYDQKITIENVAMSTGLHKNYAMKLFNRVMKVSIKQYINQLRLQHAQALLIDTENPVLNIALEAGFGSVSRFYDIFQREFNMSPLEFRRRVG | not soluble
MRPVVHVVGGGPGDPELLTVKGARLLGEARFVLYTGSLFPEGALRELAPKAALLDSKGMTLEEIVLALAEEARKGGGVVRLHSGDPGLYGTLLEEKEALEALGVGVEVVPGVTAAFALAARAGLSLTAPGVAQAVAFTRLGVRTPVPEGQDPKSLARKGLTLAVYLSGMHPRRLSRELLEAGLPGDTPVLYGHKVAQPGEEVGLTDLKGLAHLPARDTTVYLVGEALRAKGVRSLLYDPSFKHRYRR | soluble
MSDICVIIAAYNAEATIAQAVTSALAEAEVAEVVVVDDASSDATAEAALAASDGSGRLIVERQAQNGGPSAARNRAVALSQAPRIAILDADDFFLPGRFARLDPDLDLAADNIVFVTPEHAARLDPTNLPAAPREVEMLDAERFALGNLAQGVHRGELGFLKPVMSRAFLTRHGLRYDERMWLGEDFDLYMRMLLLGARFGLTRAVGYAAVQRGASLSGRHRTADLAALEACCRAHLEMPASPATQEAMRRHLRQVQAKLLLRQFLDRKAEAGLGAALGFALAPPARFLPIAKGVARDKIAALRPPAPPRAERFLLPVLEHHHHHH | not soluble
SLNEGQEMEEQFALLLETLKNQQMNEFRELFLALHIYEQGQFYQSLDEKDRQHLYNYLSPKELADMFDVIEEDNENMKDYLAEMRPSYAADMLAEMYTDNAVDLLNMLDKSQKAKYLSLLSSEEAGEIKELLHYEDETAGAIMTTEFVSIVANQTVRSAMYVLKNQADMAETIYYVYVVDQENHLVGVISLRDLIVNDDDTLIADILNERVISVHVGDDQEDVAQTIRDYDFLAVPVTDYDDHLLGIVTVDDIIDVIDDEAASDYSGLAGVDVEEVSENPLKAASK | soluble
GMYQTIEGFLQSWTYETESTQKMLDVLTDESLSQEIAPGHWTLGRVAWHIVTAIPVILSGTGLKFEGETKDYPVPTSAKTIADGYRKVNTAFVEALQSEWTDKDLTTINDFFGRPMPNSIFLMTLINHQNHHRGQMTVLMRQAGLTVPGVYGPAKEEWATAGMEAPKM | soluble
MGHHHHHHSHMSGRSVPHAHPATAEYEFANPSRLGEQRFGEGLLPEEILTPTLYHGYYVRPRAAPAGEGSRAGASELRLSEGKFQAFLDVSHFTPDEVTVRTVDNLLEVSARHPQRLDRHGFVSREFCRTYVLPADVDPWRVRAALSHDGILNLEAPRGGRHLDTEVNEVYISLLPAPPDPEEEEEAAIVEP | not soluble
MKNNPLISIYMPTWNRQQLAIRAIKSVLRQDYSNWEMIIVDDCSTSWEQLQQYVTALNDPRITYIHNDINSGACAVRNQAIMLAQGEYITGIDDDDEWTPNRLSVFLAHKQQLVTHAFLYANDYVCQGEVYSQPASLPLYPKSPYSRRLFYKRNIIGNQVFTWAWRFKECLFDTELKAAQDYDIFLRMVVEYGEPWKVEEATQILHINHGEMQITSSPKKFSGYFHFYRKHKDKFDRASKKYQLFTLYQIRNKRMTWRTLLTLLSVRNGKRLADGIRGRLEHHHHHH | soluble
MGHHHHHHSHVAVQTASKQVDGDYVVSEWSEIIEFCTADYSKVHLTQLLEKAEVIAGRMLKFSVFYRNQHKEYFDYVREHHGNAMQPSVKDNSGSHGSPISGKLEGIFFSCSTEFNTGKPPQDSPYGRYRFEIAAEKLFNPNTNLYFGDFYCMYTAYHYVILVIAPVGSPGDEFCKQRLPQLNSKDNKFLTCTEEDGVLVYHHAQDVILEVIYTDPVDLSLGTVAEITGHQLMSLSTANAKKDPSCKTCNISVGR | not soluble
MSLSEENVKLAEELIRKGYNEKKIRSLLKLPDEEFKLALEVARARIKAKDKFSRSDLWFDLEGLRYATHEVVADYRGRRLKGQGVKSIADVSCGVGIQLIFFAKHGIRSVGIDIDPIKIEFAKRNAEKYGVEVEWVVGDALSPEIIEKVDAEVIFSDPARPPEVPERNLEDLLPSPLKIYEAYKHKTDSFIFDLPPQIRREKVPWKGEFEYIDLFGHVNRLTFYTEPLAKAERSAVILPQGARLESNPDLENIVEETMEPERYIYEIPQSIDYADLINELFHKVNGELKLLLREKRRILATSNDEVKSEYFKRSYIVVKVMPFHPVRINDFLRREGYGRATLRMSVDEKEYWRIRKKIESGLSGDKRAFVFKVRDLAVIAEEIPQAEGHHHHHH | soluble
MLVGNIVKEVLAYKKGQIQQKLSSPQAFVSSRFQEKLQSEPAKETKGTTQLAKVEDMSQPVQSTKIETVVNKPEQSIHKVEEASKPEEKAETKNVDEVQVAQKEFERRFPETKNEAADTWGLTKKYNIQKIRSSNEGKYEDIIDRVSHTYGIPKTLIQKMIEVESDFNPKTVSHAGAKGLMQLMPANVKEMGIKNPFSPAESIEGGVKELSGYLKKNNGDLVLALASYNAGPGNVRKYGGVPPFKETQGYIKKILNIDVSK | not soluble
